Consider 38 variants from the RNAGym collection of RNA variant scans (doi:10.7554/elife.80360).

B1: Hairpin Ribozyme (parent)
chain: GUCCUCUUUCACGUGCGCGUGAAAGAGAGAAGUGAACCAGAGAAACACACGUUGUGGUAUAUUACCUGGUA

The variants in this data set derive from B1. In words: self-cleavage, relative activity (ratio to wild type); higher = more cleavage; co-transcriptional.
With GUCCUCUUUCACUUGCGCGUGAAAGAGAGAAGUGAACCAGAGAAACACACGUUGUGGUAUAUGACCUGGUA [G13U U63G], the self-cleavage was 0.257.

On to GUCCUCUUCCACGUGCGCGUGAAAGAGAGAAGUGAACCAGAGAAACACACGUUGUGGUACAUUACCUGGUA [U9C U60C], for which the self-cleavage turned out to be 0.981.

For GUCCUCUUUCGCGUCCGCGUGAAAGAGAGAAGUGAACCAGAGAAACACACGUUGUGGUAUAUUACCUGGUA [A11G G15C], the self-cleavage turned out to be 0.859.

In the case of GUCCUCUUUCACGUGCGCGUGAAAGAGAGGAGUGAACUAGAGAAACACACGUUGUGGUAUAUUACCUGGUA [A30G C38U], the self-cleavage worked out at 0.21.

Take GUCCUCUUUCACGUGCGCGUGAAAAACAGAAGUGAACCAGAGAAACACACGUUGUGGUAUAUUACCUGGUA [G25A G27C]: the self-cleavage turned out to be 0.155.

For the variant GUCCUCUUUCACGUGCGCGUGAAAGAGAGAAGUGAACCAGAGGAACACACGAUGUGGUAUAUUACCUGGUA [A43G U52A], the self-cleavage came to 0.202.

Consider GUCCUCUUUCAGGUGCGCGUGAAAGAGAGAAGUGAACCAGAGAAACACACGUUGUGGUUUAUUACCUGGUA [C12G A59U], for which the self-cleavage worked out at 0.134.

Take GUCCUCUUUCACGUGCGCGUGAAAGAGAGAAGUGAACCAGAGAGACACACGUUGUGGUAUAUUACGUGGUA [A44G C66G]: the self-cleavage was 0.15.

On to GUCCUCUUUAACGUGCGCGUGAAAGAGAGAAGUGAACCAGAAAAACACACGUUGUGGUAUAUUACCUGGUA [C10A G42A], for which the self-cleavage turned out to be 0.149.

With GUCCUCUUUCACGUGCGCGUGAAAGAGAGAAGUGAACCGGAGAAACACUCGUUGUGGUAUAUUACCUGGUA [A39G A49U], the self-cleavage was 0.0948.

Consider GUCCUCUAUCACGUGCGCGUGAAAGAGAGAAGUGAUCCAGAGAAACACACGUUGUGGUAUAUUACCUGGUA [U8A A36U], for which the self-cleavage amounted to 0.473.

Take GACCUCUUUCACGUGCGCGUAAAAGAGAGAAGUGAACCAGAGAAACACACGUUGUGGUAUAUUACCUGGUA [U2A G21A]: the self-cleavage was determined as 0.204.

For GUCCUCUUUCACGUGCGCGUGAAAGAGAGAAGUGAACAAGAGGAACACACGUUGUGGUAUAUUACCUGGUA [C38A A43G], the self-cleavage was 0.0867.

Regarding GUCCUCUUUCACGUGCGCGUGAAAGAGAGAAGUGAACCAGAGCAACUCACGUUGUGGUAUAUUACCUGGUA [A43C A47U], the self-cleavage stood at 0.24.

Consider GUCCUCUUUCACGUACGCGUGAAAGAGAGGAGUGAACCAGAGAAACACACGUUGUGGUAUAUUACCUGGUA [G15A A30G], for which the self-cleavage was 0.187.

As to GUCAUCUUUCACGUGCGCGUGAAAGAGAGAAGUGAAGCAGAGAAACACACGUUGUGGUAUAUUACCUGGUA [C4A C37G], the self-cleavage was 0.0599.

Take GUCCUCUAUCACGUGCGCGUGAAAGAGAGAAGUGAACCAGAGAAACACACGUUGUGGUAUAUUACCUGGGA [U8A U70G]: the self-cleavage stood at 0.585.

Regarding GUCCUCUUUCACGUGCGCGUGGAAGAGAGAAGUGAACCAGAGAAACACACGUUGUGGUAUAUUGCCUGGUA [A22G A64G], the self-cleavage was 0.565.

With GUCCUCUUUCACGUGCGCGUGAGAGAGAGAAGUGAACCCGAGAAACACACGUUGUGGUAUAUUACCUGGUA [A23G A39C], the self-cleavage was 0.408.

Consider GUCCUCUUUCACGUGUGCGUGAAAGAGAGAAGUGAAACAGAGAAACACACGUUGUGGUAUAUUACCUGGUA [C16U C37A], for which the self-cleavage stood at 0.361.

As to GUCCUCUUUCACGUGCGCGUGAAAGAGAAAAGUGAACCAGAGAAACACACGUUGUGCUAUAUUACCUGGUA [G29A G57C], the self-cleavage came to 0.109.

As to GACCUCUUUCACGUGCGCUUGAAAGAGAGAAGUGAACCAGAGAAACACACGUUGUGGUAUAUUACCUGGUA [U2A G19U], the self-cleavage stood at 0.244.

For GUCCUCUUUCACGUGGGCGUGAAAGAGAGAAGUGAACCAGAGAAACACACGUUGAGGUAUAUUACCUGGUA [C16G U55A], the self-cleavage was determined as 0.265.

For the variant GUCCUCUUUCACGUGCGCGUGAAAGAGAGAAGCGAACCAGAGAAACACACGUUGUGGCAUAUUACCUGGUA [U33C U58C], the self-cleavage was determined as 0.169.

Take GUCCUCUUUCACGUGAGCGUGAAAGAGAGAAGUUAACCAGAGAAACACACGUUGUGGUAUAUUACCUGGUA [C16A G34U]: the self-cleavage was determined as 1.47.

For GUCCGCUUUCCCGUGCGCGUGAAAGAGAGAAGUGAACCAGAGAAACACACGUUGUGGUAUAUUACCUGGUA [U5G A11C], the self-cleavage was 0.175.

On to GUCCUCUUUCACGUGCGCGUGGAAGAGAGCAGUGAACCAGAGAAACACACGUUGUGGUAUAUUACCUGGUA [A22G A30C], for which the self-cleavage was 0.182.

As for GUCCUCUUUCACGUGCGCGUGAAAGAGAGAAGUGAACCAGAGAAACACACGUUGCGGUCUAUUACCUGGUA [U55C A59C], the self-cleavage came to 0.0877.

Regarding GCCCUCUUUAACGUGCGCGUGAAAGAGAGAAGUGAACCAGAGAAACACACGUUGUGGUAUAUUACCUGGUA [U2C C10A], the self-cleavage was determined as 0.117.

Consider GUCCUCUUUCACGUGCGCGUGAAAGAGAGAAGUGAACCAGAGAAACACGCGUUGUGGUAUAUUAGCUGGUA [A49G C65G], for which the self-cleavage stood at 0.184.

For GUCCUCUUUCACGUGCGCGGGAAAGAGAGAAGUGAACCAGAGAAACACACGUUGUGGUAUACUACCUGGUA [U20G U62C], the self-cleavage is 0.188.

Turning to GUCCUCUUUCACGUGCGCGUAAAAGAGAGAAGUGGACCAGAGAAACACACGUUGUGGUAUAUUACCUGGUA [G21A A35G], the self-cleavage was determined as 0.729.

With GUCCUCUUUCACGGGCGCGUGAAAGAGAGAAGUGAACCAGAGAAACACACGUUGUCGUAUAUUACCUGGUA [U14G G56C], the self-cleavage came to 0.164.

For GUCCUCUUUCACGUGCGGGUGAAAGAGAGAAGUGAACCAGAGAAACACACGAUGUGGUAUAUUACCUGGUA [C18G U52A], the self-cleavage stood at 0.833.

Consider GUCCUCUUUCACGUGCGCGUGAAAGAGAGAAGUGAACCAGAAAAACACACGUUGUGGUAUAAUACCUGGUA [G42A U62A], for which the self-cleavage is 0.151.

Consider GUCCUCUUUCACGGGCGCGUGAAAGAGAGAAGUGAACCAGAGAAACACACGGUGUGGUAUAUUACCUGGUA [U14G U52G], for which the self-cleavage was determined as 0.507.

As to GUCCUCUUUCACGUGCGCGUGAAAGAGAGAAGUGAACCAGAGAAACACACGUUGUGCUAUAUUACGUGGUA [G57C C66G], the self-cleavage was 0.113.

Regarding GUCCUCUUUCACGUGCGCGUGAAAGAGAGAAGUGAACCAGAGAAACACAGGUUGUGGUAUAUCACCUGGUA [C50G U63C], the self-cleavage turned out to be 0.114.
